Test results from patent JP2012050437A (dated 2012).
Where a chain is given by its changes, count along the chain named.

B1: murine monoclonal antibody 12A11 (isotype IgG1) (antibody, V domains shown)
VH: QVTLKESGPGILKPSQTLSLTCSFSGFSLSTSGMSVGWIRQPSGKGLEWLAHIWWDDDKYYNPSLKSRLTISKDTSRNQVFLKITSVDTADTATYYCARRTTTADYFAYWGQGTTLTVSS
VL: DVLMTQTPLSLPVSLGDQASISCRSSQSIVHSNGNTYLEWYLQKPGQSPKLLIYKVSNRFSGVPDRFSGSGSGTDFTLKISRVEAEDLGIYYCFQSSHVPLTFGAGTKLELK
notes: Mouse IgG1 from the hybridoma; also called mAb 12A11; m12A11
B2: humanized 12A11 antibody, version 6.1 (antibody, V domains shown)
VH: QVQLVESGGGVVQPGRSLRLSCAFSGFTLSTSGMSVGWIRQAPGKGLEWVAHIWWDDDKYYNPSLKSRFTISKDTSKNTVYLQMNSLRAEDTAVYYCARRTTTADYFAYWGQGTTVTVSS
VL: DVVMTQSPLSLPVTPGEPASISCRSSQSIVHSNGNTYLEWYLQKPGQSPQLLIYKVSNRFSGVPDRFSGSGSGTDFTLKISRVEAEDVGVYYCFQSSHVPLTFGQGTKLEIK
notes: Variable regions only; also called h12A11v6.1; バージョン6.1
B3: humanized 12A11 antibody, version 5.3 (antibody, V domains shown)
VH: B2 VH with V50L, F69L, V80L
VL: B2 VL
notes: Variable regions only; also called h12A11v5.3; バージョン5.3
B4: humanized 12A11 antibody, version 3 (antibody, V domains shown)
VH: B2 VH with K73R, T75N, V80L
VL: B2 VL
notes: Variable regions only; tested in conditioned medium of COS cells; also called h12A11v3; v3
B5: humanized 12A11 antibody, version 6.2 (antibody, V domains shown)
VH: B2 VH with F69L, V80L
VL: B2 VL
notes: Variable regions only; also called h12A11v6.2; バージョン6.2
B6: humanized 12A11 antibody, version 5.4 (antibody, V domains shown)
VH: B2 VH with T28S
VL: B2 VL
notes: Variable regions only; also called h12A11v5.4; バージョン5.4
B7: humanized 12A11 antibody, version 5.2 (antibody, V domains shown)
VH: B2 VH with V50L
VL: B2 VL
notes: Variable regions only; also called h12A11v5.2; バージョン5.2
B8: humanized 12A11 antibody, version 6.4 (antibody, V domains shown)
VH: B2 VH with T28S, V80L
VL: B2 VL
notes: Variable regions only; also called h12A11v6.4; バージョン6.4
B9: humanized 12A11 antibody, version 5.5 (antibody, V domains shown)
VH: B2 VH with T28S, F69L, V80L
VL: B2 VL
notes: Variable regions only; also called h12A11v5.5; バージョン5.5
B10: humanized 12A11 antibody, version 5.6 (antibody, V domains shown)
VH: B2 VH with T28S, V50L, V80L
VL: B2 VL
notes: Variable regions only; also called h12A11v5.6; バージョン5.6
B11: humanized 12A11 antibody, version 2.1 (antibody, V domains shown)
VH: B2 VH with T75N, V80L
VL: B2 VL
notes: Variable regions only; tested in conditioned medium of COS cells; also called h12A11v2.1; v2.1
B12: humanized 12A11 antibody, version 5.1 (antibody, V domains shown)
VH: B2 VH with F69L
VL: B2 VL
notes: Variable regions only; also called h12A11v5.1; バージョン5.1
B13: humanized 12A11 antibody, version 6.3 (antibody, V domains shown)
VH: B2 VH with V50L, V80L
VL: B2 VL
notes: Variable regions only; also called h12A11v6.3; バージョン6.3
B14: recombinant mouse 12A11 Cγ2a (isotype-switched 12A11) (antibody, V domains shown)
VH: B1 VH
VL: B1 VL
modifications: biotin conjugated (in the ELISA and the competition assay)
notes: also called m12A11Cγ2a; biotin-conjugated m12A11Cγ2a

Target: T1, aggregated synthetic Aβ1-42 (human, UniProt P05067 672-713)
T1 construct: domain: Aβ1-42; Synthetic peptide, aggregated, coated for ELISA; also called 凝集Aβ1−42; Aβ(1-42) aggregate
Assay: ELISA on aggregated synthetic Aβ1-42

Binding result, binds:
B1

Target: T1, aggregated synthetic Aβ1-42
Assay: quantitative Aβ(1-42) aggregate binding assay, COS conditioned medium

Binding result, binds:
B2
B3
B4
B5
B6
B7
B8
B9
B10
B11
B12
B13

Target: T1, aggregated synthetic Aβ1-42
Assay: ELISA on aggregated Aβ1-42, streptavidin-HRP as reporter; confirmed (sentence runs on into paragraph 399)

Binding result, binds:
B14
